T1: MsDisA (Mycobacterium smegmatis mc2155, UniProt A0R564 1-372)
T1 sequence: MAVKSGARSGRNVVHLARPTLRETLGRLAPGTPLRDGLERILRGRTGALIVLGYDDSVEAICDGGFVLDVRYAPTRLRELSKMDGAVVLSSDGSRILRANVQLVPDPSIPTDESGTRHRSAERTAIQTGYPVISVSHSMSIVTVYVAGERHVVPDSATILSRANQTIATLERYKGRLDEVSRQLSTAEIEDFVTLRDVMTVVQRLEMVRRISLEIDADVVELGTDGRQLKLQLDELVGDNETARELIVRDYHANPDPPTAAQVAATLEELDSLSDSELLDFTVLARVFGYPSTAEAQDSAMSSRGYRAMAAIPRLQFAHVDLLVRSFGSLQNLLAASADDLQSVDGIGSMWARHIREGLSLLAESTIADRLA

B1: dsDNA 50mer (dsDNA)
DNA 1: GGATACGTAACAACGCTTATGCATCGCCGCCGCTACATCCCTGAGCTGAC
DNA 2: GTCAGCTCAGGGATGTAGCGGCGGCGATGCATAAGCGTTGTTACGTATCC
B2: HLDNA (synthetic Holliday junction) (structured_DNA)
DNA 1: ATCGATAGTCTCTAGACAGCATGTCCTAGCAAGCCAGAATTCGGCAGCGT
DNA 2: GACGCTGCCGAATTCTGGCTTGCTAGGACATTCTTTGCCCACGTTGACCC
DNA 3: GGGTCAACGTGGCAAAGAATGTCCTACGTCCGATACGGATAATCGCCAT
DNA 4: ATGGCGATTATCCGTATCGGACGTCGGACATGCTGTCTAGAGACTATCGA

Biological target: T1, MsDisA
Assay: EMSA

Row | Binder | binding result
1 | B1 | no binding
2 | B2 | no binding

Reference: article doi:10.1101/2021.11.20.466133
